Patent publication US12329806B2, “Compound for modulating rlr, tlr, oas and/or oncostatin m pathways, use thereof for preparing a medicine, composition, method for modulating said pathways and method of treatment” (Instituto Butantan, priority 2018, dated 2025)

Tested on: Equine melanoma tumors
Experiment: RNA-Seq transcriptomic analysis (DEGs, EdgeR) of treated equine melanoma tumors excised 6 h and 12 h after injection
Format: in vivo, Equus caballus
Description: Equine melanoma tumors were used in experiments with the administration of the compound of the invention, for transcriptomic analysis at different points in time. This translational experiment was carried out at Sao Joaquim Farm (SP) and the samples were transported to the Instituto Butantan, in the city of Sao Paulo. The experiment was designed with non-treated control samples at 0 h (PBS) and the treated tumors were excised 6 h and 12 h after the injection of 1 mg of polypeptide per kg of tumor. For each time point, two tumors were removed from three different animals, producing six tumors per time point. All 18 cDNA libraries were prepared following Illumina's TruSeq® RNA Preparation Kit Kits v2 protocol, and then sequenced using HiSeq 1500 Illumina technology, generating 2×100 bp chain-specific paired readings. The raw sequencing readings had the contaminants removed with bowtie2 2.2.5, and then trimmomatic was used for quality control of the sequences, to cut and remove readings with regions of low complexity and enriched with homopolymers, poly-A/T/N tails, low quality adapter strings and bases, with the fastq-mcf 1.04.662 software. The readings were filtered if more than 90% of the readings correspond to regions of homopolymer or of low complexity. Subsequently, cut if the average quality score was less than 25 in a window size equal to 15. After cutting, all readings less than 40 bp were discarded.
Total RNA was isolated from cells grown with Trizol (Ambion, Life Technologies) and purified with a Mini RNAspin kit (GE Healthcare) according to the manufacturer's instructions, with prolonged treatment with DNase I for 1 h.
RNA quality was assessed with an Agilent 2100 Bioanalyzer RNA Pico assay. RNA was quantified using the Rib-Green Quant-iT and RNA reagent kit (Invitrogen, Life Technologies). The messenger RNA (mRNA) was isolated and used to prepare the complementary DNA (cDNA) libraries following the instructions of the TruSeq RNA Sample Prep Kit V2 (Illumina, San Diego, Calif.). Briefly, the mRNA was isolated with oligo-dT and purified. Then, the mRNA was fragmented by heating to 94° C. (4 min) in fragmentation buffer. The double-stranded cDNA was synthesized, repaired at the end and tail A. The sequencing adapters were then attached to the cDNA fragments, according to the manufacturer's protocol. The cDNA fragments were enriched after 15 rounds of PCR amplification. The quality control of the library was assessed by size distribution of the cDNA libraries measured using 2100 Bioanalyzer with DNA1000 assay (Agilent Technologies) and a StepOnePlus real-time PCR system from ABI were used to quantify the sample library before sequencing. The cDNA library was sequenced on the Illumina HiSeq 1500 System, in a final flow cell paired with Rapid in a 200 pair strategy of 2-101 bp pairing strategy.
The in-silico analysis of RNA-Seq comprises several quality steps and transcriptomic quantification algorithms that are understood in the present invention as “pipeline”. (FIG. 19). The quality check was performed using FastQC3. Hisat214 was used to align readings against the horse's reference genome (Equus caballus) (annotation version 89). To map and quantify transcriptions, the feature Counts was used, resulting in a table of genetic IDs versus samples with raw reading counts. Then, differentially expressed genes (DEGs) were calculated using the EdgeR package. Genes with less than one count per million (CPM) were filtered out. The DEGs were calculated by crossing the sample values of a) 6 h after treatment (6 h)×control (0 h); b) 12 h after treatment (12 h)×control; and also, c) 12 h×6 h. DEGs are defined as an absolute value of log 2 fold change between two groups (LFC)>1 and false discovery rate (FDR)<0.05. […]

[1] = in vivo administration, RNA-Seq
[2] = treated equine melanoma tumors, RNA-Seq

B1: Amblyomin-X: recombinant Kunitz type protein identified in a cDNA library of Amblyomma sculptum tick salivary glands (protein)
chain: MRQLAVLALVIFTGMCVESQSANSKAVCNLPKLAGDETCSNKTEIRWYYNGTACEAFIFKGCGGNDNNFDRVDDCQRLCEEQTHFHFESPKLICFKVQDYWILNDIMKKNLTGISLKSEEEDADSGEID
modifications: Amblyomin-X
notes: recombinant Kunitz type protein identified in a cDNA library of Amblyomma sculptum tick salivary glands
logFC6, gene IFIH1 (RNA-seq, 6 h after treatment): 0.851 | logFC6, gene IFIT1 (RNA-seq, 6 h after treatment): 2.574 | logFC6, gene IL1B (RNA-seq, 6 h after treatment): 4.309 | logFC6, gene IL1RN (RNA-seq, 6 h after treatment): 2.823 | logFC6, gene IL13RA1 (RNA-seq, 6 h after treatment): 1.408 | logFC6, gene IRF9 (RNA-seq, 6 h after treatment): 1.136 | logFC6, gene ITGA1 (RNA-seq, 6 h after treatment): 1.348 | logFC6, gene MYH1 (RNA-seq, 6 h after treatment): −8.4 | logFC6, gene MYH3 (RNA-seq, 6 h after treatment): −3.643 | logFC6, gene MYL2 (RNA-seq, 6 h after treatment): −8.697 | logFC6, gene MYLPF (RNA-seq, 6 h after treatment): −5.872 | logFC6, gene NTNG1 (RNA-seq, 6 h after treatment): −1.959 | logFC6, gene OAS2 (RNA-seq, 6 h after treatment): 1.463 | logFC6, gene PARP9 (RNA-seq, 6 h after treatment): 1.816 | logFC6, gene PER1 (RNA-seq, 6 h after treatment): −1.474 | logFC6, gene PIK3R6 (RNA-seq, 6 h after treatment): −1.277 | logFC6, gene RUNX1 (RNA-seq, 6 h after treatment): 1.723 | logFC6, gene SAA1 (RNA-seq, 6 h after treatment): 3.456 | logFC6, gene SELP (RNA-seq, 6 h after treatment): 2.596 | logFC6, gene SLPI (RNA-seq, 6 h after treatment): 3.009 | logFC6, gene SOCS3 (RNA-seq, 6 h after treatment): 2.979 | logFC6, gene STAT1 (RNA-seq, 6 h after treatment): 1.085 | logFC6, gene TAT (RNA-seq, 6 h after treatment): 5.292 | logFC6, gene TEAD4 (RNA-seq, 6 h after treatment): 1.685 | logFC6, gene THBS1 (RNA-seq, 6 h after treatment): 1.819 | logFC6, gene TLR2 (RNA-seq, 6 h after treatment): 1.5586 | logFC6, gene TREM1 (RNA-seq, 6 h after treatment): 5.551 | logFC12, gene ACTN1 (RNA-seq, 12 h after treatment): 1.006 | logFC12, gene BCL3 (RNA-seq, 12 h after treatment): 1.709 | logFC12, gene BIRC3 (RNA-seq, 12 h after treatment): 0.9146 | logFC12, gene CAD (RNA-seq, 12 h after treatment): 1.028 | logFC12, gene CCL2 (RNA-seq, 12 h after treatment): 3.517 | logFC12, gene CDO1 (RNA-seq, 12 h after treatment): −2.408 | logFC12, gene CTSL (RNA-seq, 12 h after treatment): 1.385 | logFC12, gene CXCL6 (RNA-seq, 12 h after treatment): 3.417 | logFC12, gene DDX58 (RNA-seq, 12 h after treatment): 1.76 | logFC12, gene F12 (RNA-seq, 12 h after treatment): 3.104 | logFC12, gene FOSL1 (RNA-seq, 12 h after treatment): 4.028 | logFC12, gene FSCN1 (RNA-seq, 12 h after treatment): 1.831 | logFC12, gene HMOX1 (RNA-seq, 12 h after treatment): 1.117 | logFC12, gene HSPA6 (RNA-seq, 12 h after treatment): 4.55 | logFC12, gene IFI35 (RNA-seq, 12 h after treatment): 1.639 | logFC12, gene IFIH1 (RNA-seq, 12 h after treatment): 1.823 | logFC12, gene IFIT1 (RNA-seq, 12 h after treatment): 2.655 | logFC12, gene IL1B (RNA-seq, 12 h after treatment): 3.152 | logFC12, gene IL1RN (RNA-seq, 12 h after treatment): 2.805 | logFC12, gene IL13RA1 (RNA-seq, 12 h after treatment): 1.28 | logFC12, gene IRF9 (RNA-seq, 12 h after treatment): 1.462 | logFC12, gene ITGA1 (RNA-seq, 12 h after treatment): 1.094 | logFC12, gene MYH1 (RNA-seq, 12 h after treatment): −8.31 | logFC12, gene MYH3 (RNA-seq, 12 h after treatment): 3.004 | logFC12, gene MYL2 (RNA-seq, 12 h after treatment): −7.917 | logFC12, gene MYLPF (RNA-seq, 12 h after treatment): −5.428 | logFC12, gene NTNG1 (RNA-seq, 12 h after treatment): −2.943 | logFC12, gene OAS2 (RNA-seq, 12 h after treatment): 2.491 | logFC12, gene PARP9 (RNA-seq, 12 h after treatment): 2.109 | logFC12, gene PER1 (RNA-seq, 12 h after treatment): −1.139 | logFC12, gene PIK3R6 (RNA-seq, 12 h after treatment): −1.356 | logFC12, gene RUNX1 (RNA-seq, 12 h after treatment): 1.443 | logFC12, gene SAA1 (RNA-seq, 12 h after treatment): 3.902 | logFC12, gene SELP (RNA-seq, 12 h after treatment): 2.395 | logFC12, gene SLPI (RNA-seq, 12 h after treatment): 3.051 | logFC12, gene SOCS3 (RNA-seq, 12 h after treatment): 2.423 | logFC12, gene STAT1 (RNA-seq, 12 h after treatment): 1.267 | logFC12, gene TAT (RNA-seq, 12 h after treatment): 5.521 | logFC12, gene TEAD4 (RNA-seq, 12 h after treatment): 1.949 | logFC12, gene THBS1 (RNA-seq, 12 h after treatment): 0.8749 | logFC12, gene TLR2 (RNA-seq, 12 h after treatment): 1.839 | logFC12, gene TREM1 (RNA-seq, 12 h after treatment): 5.559 | LFC SELE (6 h×0 h) (e-selectin (SELE) gene, log2 fold change, 6 h after treatment vs control 0 h, RNA-Seq): 2.33 | LFC SELE (12 h×0 h) (e-selectin (SELE) gene, log2 fold change, 12 h after treatment vs control 0 h, RNA-Seq): 1.78 | logFC6 BATF3 (gene BATF3, RNA-seq, 6 hours after treatment): 3.137 | logFC12 BATF3 (gene BATF3, RNA-seq, 12 hours after treatment): 2.91 | logFC6 CAV3 (gene CAV3, RNA-seq, 6 hours after treatment): −3.0363 | logFC12 CAV3 (gene CAV3, RNA-seq, 12 hours after treatment): −6.6813 | logFC6 CCR7 (gene CCR7, RNA-seq, 6 hours after treatment): 2.652 | logFC12 CCR7 (gene CCR7, RNA-seq, 12 hours after treatment): 2.359 | logFC6 CDH15 (gene CDH15, RNA-seq, 6 hours after treatment): −2.616 | logFC12 CDH15 (gene CDH15, RNA-seq, 12 hours after treatment): −1.702 | logFC6 EIF2AK2 (gene EIF2AK2, RNA-seq, 6 hours after treatment): 2.4 | logFC12 EIF2AK2 (gene EIF2AK2, RNA-seq, 12 hours after treatment): 2.959 | logFC6 ETV6 (gene ETV6, RNA-seq, 6 hours after treatment): 1.795 | logFC12 ETV6 (gene ETV6, RNA-seq, 12 hours after treatment): 1.871 | logFC6 IL7R (gene IL7R, RNA-seq, 6 hours after treatment): 2.532 | logFC12 IL7R (gene IL7R, RNA-seq, 12 hours after treatment): 2.227 | logFC6 IL18RAP (gene IL18RAP, RNA-seq, 6 hours after treatment): 2.817 | logFC12 IL18RAP (gene IL18RAP, RNA-seq, 12 hours after treatment): 2.593 | logFC6 MYLK2 (gene MYLK2, RNA-seq, 6 hours after treatment): −5.152 | logFC12 MYLK2 (gene MYLK2, RNA-seq, 12 hours after treatment): −5.672 | logFC6 NECTIN3 (gene NECTIN3, RNA-seq, 6 hours after treatment): 1.287 | logFC12 NECTIN3 (gene NECTIN3, RNA-seq, 12 hours after treatment): 1.113 | logFC6 NLRC4 (gene NLRC4, RNA-seq, 6 hours after treatment): 5.503 | logFC12 NLRC4 (gene NLRC4, RNA-seq, 12 hours after treatment): 5.687 | logFC6 NLRP12 (gene NLRP12, RNA-seq, 6 hours after treatment): 3.4 | logFC12 NLRP12 (gene NLRP12, RNA-seq, 12 hours after treatment): 2.297 | logFC6 OAS3 (gene OAS3, RNA-seq, 6 hours after treatment): 1.716 | logFC12 OAS3 (gene OAS3, RNA-seq, 12 hours after treatment): 2.112 | logFC6 PRKCQ (gene PRKCQ, RNA-seq, 6 hours after treatment): −1.531 | logFC12 PRKCQ (gene PRKCQ, RNA-seq, 12 hours after treatment): −3.021 | DEG modulation of ACTA1 and ACTN2 [1]: high negative regulation | DEG modulation of ACTN1 and ACTR3 [1]: positive regulation | DEG modulation of TUBB and TUBB6 (Tubulin family) [1]: positive regulation | expression of Interferons (type 1 interferon, IFN alpha and IFN beta) [2]: does not lead to the detectable expression | expression of the NOXA gene (PMAIP1) [2]: did not induce the detectable expression
